Assays:
[1] = test system: DMNPE-veiled C1-NPs (STREAMs)
[2] = test system: C1-NPs: fluorescein-conjugated MMP substrate peptide C1 (FAM-sk-PLGLEEA-GC) coupled to iron oxide nanoparticles
[3] = test system: S3: Biotin-CGPLGVRGKK(Cy7)eGvndneeGffsar-NH2
[4] = test system: S1: Biotin-CGPVGLIGK(Cy7)eGvndneeGffsar-NH2
[5] = test system: S2: Biotin-CGPVPLSLVMK(Cy7)eGvndneeGffsar-NH2
Sequence of S2: Biotin-CGPVPLSLVMK(Cy7)eGvndneeGffsar-NH2 (chain, as listed by the source): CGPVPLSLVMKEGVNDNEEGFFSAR

Sequence of recombinant MMP9 (chain, as listed by the source): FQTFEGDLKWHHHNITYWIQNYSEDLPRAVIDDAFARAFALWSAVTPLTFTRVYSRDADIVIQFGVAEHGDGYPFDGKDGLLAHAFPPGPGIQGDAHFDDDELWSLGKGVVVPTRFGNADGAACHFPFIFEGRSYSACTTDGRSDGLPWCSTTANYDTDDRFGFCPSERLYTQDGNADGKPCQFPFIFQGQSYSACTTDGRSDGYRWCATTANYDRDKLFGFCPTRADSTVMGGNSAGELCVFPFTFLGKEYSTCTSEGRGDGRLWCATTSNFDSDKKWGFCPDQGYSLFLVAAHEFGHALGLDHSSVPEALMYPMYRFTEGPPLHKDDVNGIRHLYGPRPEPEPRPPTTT
Sequence of S1: Biotin-CGPVGLIGK(Cy7)eGvndneeGffsar-NH2 (chain, as listed by the source): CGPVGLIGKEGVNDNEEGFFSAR
Sequence of recombinant MMP2 (chain, as listed by the source): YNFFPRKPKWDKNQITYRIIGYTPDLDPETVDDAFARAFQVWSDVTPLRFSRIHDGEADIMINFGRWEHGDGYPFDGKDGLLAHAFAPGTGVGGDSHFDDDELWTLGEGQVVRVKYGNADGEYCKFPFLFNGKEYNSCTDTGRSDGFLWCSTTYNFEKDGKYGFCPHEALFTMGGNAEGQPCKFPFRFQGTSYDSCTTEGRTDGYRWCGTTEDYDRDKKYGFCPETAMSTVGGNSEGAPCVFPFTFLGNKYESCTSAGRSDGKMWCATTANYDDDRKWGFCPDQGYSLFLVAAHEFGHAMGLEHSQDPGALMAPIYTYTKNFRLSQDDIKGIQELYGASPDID
Sequence of S3: Biotin-CGPLGVRGKK(Cy7)eGvndneeGffsar-NH2 (chain, as listed by the source): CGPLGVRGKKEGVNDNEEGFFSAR
Sequence of recombinant MMP19 (chain, as listed by the source): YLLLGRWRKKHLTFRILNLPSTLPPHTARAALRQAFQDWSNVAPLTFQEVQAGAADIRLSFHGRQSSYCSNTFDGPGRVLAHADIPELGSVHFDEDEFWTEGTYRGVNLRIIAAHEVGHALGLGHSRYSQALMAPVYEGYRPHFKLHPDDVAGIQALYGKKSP

Row | Substance | proteolysis (fluorescence dequenching) [1] | proteolysis (fluorescence dequenching) [2] | relative proteolysis (Cy7 signal after streptavidin depletion of uncleaved peptide) [3] | relative proteolysis (Cy7 signal after streptavidin depletion of uncleaved peptide) [4] | other results
1 | recombinant MMP13 | marked reduction in proteolysis | significantly cleaved by MMP13, 7, 1, and 9 |  |  | fluorescence dequenching measurements of protease cleavage [2]: with MMP13 as the most efficient
2 | recombinant MMP2 |  |  | responded primarily to MMP2 and MMP9 | responded primarily to MMP2 and MMP9 | 
3 | recombinant MMP9 | marked reduction in proteolysis | significantly cleaved by MMP13, 7, 1, and 9 | responded primarily to MMP2 and MMP9 | responded primarily to MMP2 and MMP9 | catalytic efficiency (Michaelis-Menten fit) [2]: catalytic efficiencies>10^3 M^-1 s^-1 and 10^4 M^-1 s^-1, respectively
4 | recombinant MMP19 |  |  |  |  | relative proteolysis (Cy7 signal after streptavidin depletion of uncleaved peptide) [5]: cleaved efficiently by MMP7 and MMP19
5 | recombinant thrombin |  |  |  |  | cleavage monitored by fluorescence release [1]: reduced cleavage of the substrate
